Test results as given in doi:10.1101/760389 (bioRxiv, 2019).

T1: MBP-tagged CKL6 (casein kinase1-like 6) (Arabidopsis thaliana, UniProt Q8LPJ1 1-479)
T1 sequence (looked up): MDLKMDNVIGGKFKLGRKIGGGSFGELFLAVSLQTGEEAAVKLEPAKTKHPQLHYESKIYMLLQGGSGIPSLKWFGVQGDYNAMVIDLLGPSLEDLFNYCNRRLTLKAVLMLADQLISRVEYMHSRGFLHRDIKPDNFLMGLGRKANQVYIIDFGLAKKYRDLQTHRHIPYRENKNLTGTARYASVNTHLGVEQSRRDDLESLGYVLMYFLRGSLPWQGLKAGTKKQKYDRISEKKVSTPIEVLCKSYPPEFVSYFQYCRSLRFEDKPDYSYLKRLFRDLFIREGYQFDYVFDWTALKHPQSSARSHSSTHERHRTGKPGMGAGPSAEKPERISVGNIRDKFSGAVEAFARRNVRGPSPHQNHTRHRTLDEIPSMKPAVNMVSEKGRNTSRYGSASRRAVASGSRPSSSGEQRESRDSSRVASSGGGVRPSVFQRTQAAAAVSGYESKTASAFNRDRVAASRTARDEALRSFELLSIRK

B1: FRA1 C-terminal tail fragment (amino acids 616-1035), C-terminal 6xHis fusion (domain or fragment, Arabidopsis thaliana, UniProt Q8GS71 616-1035, looked up)
chain: ARRLQDEIQSIKAQKVQLQHRMKQEAEQFRQWKASREKELLQLRKEGRKSEYERHKLQALNQRQKMVLQRKTEEAAMATKRLKELLEARKSSPREHSAGTNGFGTNGQTNEKSLQRWLDHELEVMVNVHEVRHEYEKQSHVRAALAEELAVLRQVDEFAVKGLSPPRGKNGFARASSLSPNARMARISSLENMLVISSNSLVAMASQLSEAEERERAFTNRGRWNQLRSMGEAKNLLQYMFNSLAETRCQLWEKDVEIKEMKDQFKEIVGLLRQSELRRKEAEKELKLREQAIATSLGTPPSSVKHVAEDLSTPSPMTVPAQKQLKFTPGIANGKVRGPAAFLDTNKKMVPMGQVSMRKLSAVGKQGGRLWRWKRSHHQWIVQFKWKWQKPWRLSEWIRTSDETLLKSKPRLKALPNKIM

Legend:
[1] = target: T1, MBP-tagged CKL6 (casein kinase1-like 6); assay: pull-down
[2] = target: B1; assay: pull-down

binding result [1] | binding result [2] | Binder
binds | – | B1
– | binds | MBP-tagged CKL3 (casein kinase1-like 3) (enzyme, Arabidopsis thaliana, UniProt Q93Z18 1-415, looked up) MERIIGGKYKLGRKIGGGSFGEIFLATHVDTFEIVAVKIENSKTKHPQLLYEAKLYRILEGGSGIPRIKWFGVDGTENALVMDLLGPSLEDLFVYCGRKFSPKTVLMLADQMLTRIEFVHSKGYLHRDIKPDNFLMGLGRKANQVYLIDFGLAKRYRDANTNRHIPYRENKNLTGTARYASCNTHLGIEQSRRDDLESLGYVLLYFLRGSLPWQGLKAVDKKQKYDKICEKKISTPIEVLCKNHPVEFASYFHYCHTLTFDQRPDYGFLKRLFRDLFSREGYEFDYIFDWTIIKYQQAQKSRNQSQAVPGSSNPRAMPVDTSNHRGGPNISYEAEASERVRSANAIGPSPQINNNTAAGRTPGFDHPVHKNMNMPSTSLSPAGTSKRNVGPETSNSGYGSGNRTGWTSSFMSPEK
